Source: the supplement of paper PMC6379048

What was measured:
WDR33 = molecular target: T1, WDR33 (UniProt Q9C0J8); experiment: EC50 of free RNA motif oligo competing protein binding to immobilised probe
T1 sequence: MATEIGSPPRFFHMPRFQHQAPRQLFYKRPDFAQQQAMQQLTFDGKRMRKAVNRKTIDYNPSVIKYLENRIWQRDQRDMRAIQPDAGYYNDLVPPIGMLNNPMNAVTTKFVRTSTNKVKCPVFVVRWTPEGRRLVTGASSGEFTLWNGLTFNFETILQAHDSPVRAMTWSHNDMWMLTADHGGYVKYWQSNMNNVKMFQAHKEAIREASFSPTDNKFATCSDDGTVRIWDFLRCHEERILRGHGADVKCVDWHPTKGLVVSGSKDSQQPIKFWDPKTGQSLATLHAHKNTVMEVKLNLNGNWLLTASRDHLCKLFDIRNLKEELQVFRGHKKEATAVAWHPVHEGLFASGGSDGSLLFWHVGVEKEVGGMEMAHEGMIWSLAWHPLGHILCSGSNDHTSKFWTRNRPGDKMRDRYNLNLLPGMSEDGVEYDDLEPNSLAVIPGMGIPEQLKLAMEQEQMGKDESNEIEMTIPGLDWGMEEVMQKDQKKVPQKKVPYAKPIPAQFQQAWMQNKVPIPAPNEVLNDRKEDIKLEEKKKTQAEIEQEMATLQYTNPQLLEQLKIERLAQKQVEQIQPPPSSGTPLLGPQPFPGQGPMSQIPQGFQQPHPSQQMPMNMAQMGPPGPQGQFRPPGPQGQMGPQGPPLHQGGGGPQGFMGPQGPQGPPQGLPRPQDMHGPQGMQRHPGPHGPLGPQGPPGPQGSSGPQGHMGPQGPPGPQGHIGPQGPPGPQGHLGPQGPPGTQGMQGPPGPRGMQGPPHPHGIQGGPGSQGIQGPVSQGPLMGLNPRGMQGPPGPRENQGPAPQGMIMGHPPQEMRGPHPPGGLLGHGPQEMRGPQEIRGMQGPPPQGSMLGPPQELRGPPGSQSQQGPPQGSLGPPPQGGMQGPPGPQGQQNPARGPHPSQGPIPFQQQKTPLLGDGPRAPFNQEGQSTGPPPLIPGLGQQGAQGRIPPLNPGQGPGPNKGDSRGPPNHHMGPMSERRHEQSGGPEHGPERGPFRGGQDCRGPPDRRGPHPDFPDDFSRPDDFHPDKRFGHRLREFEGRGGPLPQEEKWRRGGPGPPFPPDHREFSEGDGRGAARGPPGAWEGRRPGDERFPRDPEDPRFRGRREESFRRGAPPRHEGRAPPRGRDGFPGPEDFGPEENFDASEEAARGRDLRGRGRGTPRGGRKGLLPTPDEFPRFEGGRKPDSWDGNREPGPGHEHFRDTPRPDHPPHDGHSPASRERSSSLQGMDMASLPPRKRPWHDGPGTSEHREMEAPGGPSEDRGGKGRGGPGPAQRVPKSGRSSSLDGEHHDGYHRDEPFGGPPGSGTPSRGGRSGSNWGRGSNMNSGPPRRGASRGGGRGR
Method in brief: (§1)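 HEK293-FT lysate (2.5 mg protein/well) was pre-incubated 1 h at 4°C with free RNA oligos (0 nM to 30 μM), then 30 min at 4°C with the same 5′-amino-C6 oligos coupled to NHS-Sepharose beads. Bound proteins were quantified by label-free LC-MS/MS in three biological replicates and two independent experiments, and normalised to the water control. EC50 came from a four-parameter log-logistic fit; Kd is EC50 times a protein-dependent depletion factor.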

XAB2 = molecular target: T2, XAB2 (UniProt Q9HCS7); experiment: as above
T2 sequence: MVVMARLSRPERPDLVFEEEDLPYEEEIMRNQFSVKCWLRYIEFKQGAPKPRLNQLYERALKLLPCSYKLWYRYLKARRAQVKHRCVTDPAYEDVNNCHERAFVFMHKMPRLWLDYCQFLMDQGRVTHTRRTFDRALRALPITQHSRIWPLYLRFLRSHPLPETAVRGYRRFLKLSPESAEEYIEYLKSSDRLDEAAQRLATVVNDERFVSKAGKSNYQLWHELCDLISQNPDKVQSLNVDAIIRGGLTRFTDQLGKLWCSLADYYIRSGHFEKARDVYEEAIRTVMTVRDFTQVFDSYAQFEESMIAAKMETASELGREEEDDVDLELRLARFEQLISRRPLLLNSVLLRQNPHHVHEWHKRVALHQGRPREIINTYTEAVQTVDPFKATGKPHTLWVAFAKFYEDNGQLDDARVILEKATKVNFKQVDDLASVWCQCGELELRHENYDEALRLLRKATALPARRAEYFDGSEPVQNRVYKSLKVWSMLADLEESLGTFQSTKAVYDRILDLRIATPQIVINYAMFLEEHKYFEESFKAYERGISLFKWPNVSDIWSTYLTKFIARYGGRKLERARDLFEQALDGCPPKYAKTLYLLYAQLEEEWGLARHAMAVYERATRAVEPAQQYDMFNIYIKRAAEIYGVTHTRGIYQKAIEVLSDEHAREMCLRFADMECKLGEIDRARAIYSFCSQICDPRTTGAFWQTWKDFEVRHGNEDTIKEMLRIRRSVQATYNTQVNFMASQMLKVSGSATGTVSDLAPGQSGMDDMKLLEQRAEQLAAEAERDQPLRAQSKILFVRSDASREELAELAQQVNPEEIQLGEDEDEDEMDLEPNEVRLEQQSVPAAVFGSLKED
Method in brief: as §1

| Sequence | EC50 (WDR33) [µM] | EC50 (XAB2) [µM] |
| --- | --- | --- |
| UAUUUAU | 0.96 | 0.601 |
| AAUAAA | 0.0646 | 1.37 |
